Reference: the Immune Epitope Database (IEDB)
pKd: −log10 of the molar value. Values belong to the sequence of their own block, whether it stands above or below them.

Experiments:
HLA-A*03:01 [1] = assay: IEDB peptide-MHC binding, purified MHC/direct/fluorescence; filed as Kd, often an IC50 or EC50 that approximates it; ≥ and ≤ were set here for values at or beyond the usual limits of such assays
HLA-A*31:01 [2] = assay: as above
HLA-B*58:01 = assay: as above
HLA-B*08:01 = assay: as above; conditions: source organism: Influenza A virus (A/chicken/Hunan/fg/2004(H5N1))
HLA-B*15:01 [3] = assay: as above
HLA-B*44:02 = assay: as above
HLA-B*40:01 = assay: as above
HLA-A*02:01 [4] = assay: as above
HLA-A*26:01 [5] = assay: as above
HLA-B*27:05 = assay: as above
HLA-A*24:02 = assay: as above
HLA-A*11:01 [6] = assay: as above
HLA-B*07:02 [7] = assay: as above
HLA-A*69:01 [8] = assay: as above
HLA-A*02:02 = assay: IEDB peptide-MHC binding, purified MHC/competitive/radioactivity; filed as Kd, often an IC50 or EC50 that approximates it; ≥ and ≤ were set here for values at or beyond the usual limits of such assays; conditions: source organism: Vaccinia virus WR
HLA-A*68:02 = assay: as above; conditions: source organism: Vaccinia virus WR
HLA-B*53:01 = assay: as above; conditions: source organism: Vaccinia virus WR
HLA-A*02:01 [9] = assay: as above; conditions: source organism: Vaccinia virus WR
HLA-B*54:01 = assay: as above; conditions: source organism: Vaccinia virus WR
HLA-B*35:01 = assay: as above; conditions: source organism: Vaccinia virus WR
HLA-B*51:01 [10] = assay: as above; conditions: source organism: Vaccinia virus WR
HLA-A*02:03 = assay: as above; conditions: source organism: Vaccinia virus WR
HLA-A*11:01 [11] = assay: as above; conditions: source organism: Vaccinia virus WR
HLA-B*07:02 [12] = assay: as above; conditions: source organism: Vaccinia virus WR
HLA-A*02:06 = assay: as above; conditions: source organism: Vaccinia virus WR
HLA-B*46:01 [13] = assay: IEDB peptide-MHC binding, purified MHC/direct/fluorescence; filed as Kd, often an IC50 or EC50 that approximates it; ≥ and ≤ were set here for values at or beyond the usual limits of such assays
HLA-A*01:01 = assay: as above
HLA-B*18:01 [14] = assay: as above
HLA-A*03:01 [15] = assay: IEDB peptide-MHC binding, purified MHC/competitive/radioactivity; filed as Kd, often an IC50 or EC50 that approximates it; ≥ and ≤ were set here for values at or beyond the usual limits of such assays; conditions: source organism: Vaccinia virus WR
HLA-A*31:01 [16] = assay: as above; conditions: source organism: Vaccinia virus WR
HLA-A*68:01 = assay: as above; conditions: source organism: Vaccinia virus WR
HLA-A*33:01 = assay: as above; conditions: source organism: Vaccinia virus WR
HLA-B*15:01 [17] = assay: IEDB peptide-MHC binding, purified MHC/competitive/fluorescence; filed as Kd, often an IC50 or EC50 that approximates it; ≥ and ≤ were set here for values at or beyond the usual limits of such assays; conditions: source organism: Homo sapiens
HLA-B*46:01 [18] = assay: as above; conditions: source organism: Homo sapiens
HLA-B*15:17 = assay: as above; conditions: source organism: Homo sapiens
HLA-A*02:01 [19] = assay: as above; conditions: source organism: Homo sapiens
HLA-A*26:01 [20] = assay: as above; conditions: source organism: Homo sapiens
HLA-B*57:01 = assay: as above; conditions: source organism: Homo sapiens
HLA-B*39:01 = assay: as above; conditions: source organism: Homo sapiens
HLA-B*27:03 = assay: as above; conditions: source organism: Homo sapiens
HLA-B*51:01 [21] = assay: as above; conditions: source organism: Homo sapiens
HLA-B*18:01 [22] = assay: as above; conditions: source organism: Homo sapiens
HLA-A*69:01 [23] = assay: as above; conditions: source organism: Homo sapiens
[24] = source organism: Influenza A virus (A/chicken/Hunan/fg/2004(H5N1))
[25] = source organism: Escherichia coli O157:H7
[26] = source organism: Yersinia pestis

Sequence: DTVNRTHQY
pKd (HLA-A*03:01 [1]; [24]): ≤ 4.70 | pKd (HLA-A*31:01 [2]; [24]): ≤ 4.70 | pKd (HLA-B*58:01; [24]): ≤ 4.70 | pKd (HLA-B*08:01): ≤ 4.70 | pKd (HLA-B*15:01 [3]; [24]): ≤ 4.70 | pKd (HLA-B*44:02; [24]): ≤ 4.70 | pKd (HLA-B*40:01; [24]): ≤ 4.70 | pKd (HLA-A*02:01 [4]; [24]): ≤ 4.70 | pKd (HLA-A*26:01 [5]; [24]): 8.26 | pKd (HLA-B*27:05; [24]): ≤ 4.70 | pKd (HLA-A*24:02; [24]): ≤ 4.70 | pKd (HLA-A*11:01 [6]; [24]): ≤ 4.70 | pKd (HLA-B*07:02 [7]; [24]): ≤ 4.70 | pKd (HLA-A*69:01 [8]; [24]): ≤ 4.70

Sequence: STCYVFGLY
pKd (HLA-A*02:02): 4.87 | pKd (HLA-A*68:02): 5.86 | pKd (HLA-B*53:01): 5.00 | pKd (HLA-A*02:01 [9]): 5.38 | pKd (HLA-B*54:01): 4.97 | pKd (HLA-B*35:01): ≤ 4.42 | pKd (HLA-B*51:01 [10]): ≤ 4.13 | pKd (HLA-A*02:03): ≤ 5.00 | pKd (HLA-A*11:01 [11]): 8.10 | pKd (HLA-B*07:02 [12]): ≤ 4.11 | pKd (HLA-A*02:06): 5.21

pKd (HLA-A*03:01 [1]; [25]): ≤ 4.70 | pKd (HLA-B*58:01; [25]): ≤ 4.70 | pKd (HLA-B*15:01 [3]; [25]): ≤ 4.70 | pKd (HLA-B*46:01 [13]; [25]): ≤ 4.70 | pKd (HLA-A*01:01; [25]): ≤ 4.70 | pKd (HLA-B*40:01; [25]): ≤ 4.70 | pKd (HLA-A*02:01 [4]; [25]): ≤ 4.70 | pKd (HLA-B*27:05; [25]): ≤ 4.70 | pKd (HLA-B*18:01 [14]; [25]): ≤ 4.70 | pKd (HLA-A*24:02; [25]): ≤ 4.70 | pKd (HLA-A*11:01 [6]; [25]): ≤ 4.70 | pKd (HLA-B*07:02 [7]; [25]): ≤ 4.70 | pKd (HLA-A*69:01 [8]; [25]): ≤ 4.70
Sequence: QMRVRYYGL

Sequence: RVFNGDDVK
pKd (HLA-A*03:01 [1]; [26]): 5.86 | pKd (HLA-A*31:01 [2]; [26]): 5.38 | pKd (HLA-B*58:01; [26]): ≤ 4.70 | pKd (HLA-B*15:01 [3]; [26]): ≤ 4.70 | pKd (HLA-B*46:01 [13]; [26]): ≤ 4.70 | pKd (HLA-A*01:01; [26]): ≤ 4.70 | pKd (HLA-B*44:02; [26]): ≤ 4.70 | pKd (HLA-B*40:01; [26]): ≤ 4.70 | pKd (HLA-A*02:01 [4]; [26]): ≤ 4.70 | pKd (HLA-A*26:01 [5]; source organism: Yersinia pestis CA88-4125): ≤ 4.70 | pKd (HLA-B*27:05; [26]): ≤ 4.70 | pKd (HLA-B*18:01 [14]; [26]): ≤ 4.70 | pKd (HLA-A*24:02; [26]): ≤ 4.70 | pKd (HLA-A*11:01 [6]; [26]): 6.60 | pKd (HLA-B*07:02 [7]; [26]): ≤ 4.70 | pKd (HLA-A*69:01 [8]; [26]): ≤ 4.70

pKd (HLA-A*03:01 [1]; [25]): ≤ 4.70 | pKd (HLA-B*58:01; [25]): ≤ 4.70 | pKd (HLA-B*15:01 [3]; [25]): ≤ 4.70 | pKd (HLA-A*01:01; [25]): ≤ 4.70 | pKd (HLA-B*44:02; [25]): ≤ 4.70 | pKd (HLA-B*40:01; [25]): ≤ 4.70 | pKd (HLA-A*02:01 [4]; [25]): ≤ 4.70 | pKd (HLA-B*27:05; [25]): ≤ 4.70 | pKd (HLA-B*18:01 [14]; [25]): ≤ 4.70 | pKd (HLA-A*24:02; [25]): ≤ 4.70 | pKd (HLA-A*11:01 [6]; [25]): ≤ 4.70 | pKd (HLA-B*07:02 [7]; [25]): 7.17 | pKd (HLA-A*69:01 [8]; [25]): ≤ 4.70
Sequence: KPKLKVATL

Sequence: CTFMIITSTK
pKd (HLA-A*03:01 [15]): 6.34 | pKd (HLA-A*31:01 [16]): 6.77 | pKd (HLA-A*02:02): 5.09 | pKd (HLA-A*68:02): ≤ 4.42 | pKd (HLA-A*68:01): 7.08 | pKd (HLA-B*53:01): 5.72 | pKd (HLA-A*02:01 [9]): 5.73 | pKd (HLA-B*54:01): 5.49 | pKd (HLA-B*35:01): ≤ 4.19 | pKd (HLA-B*51:01 [10]): 4.99 | pKd (HLA-A*02:03): 5.17 | pKd (HLA-A*11:01 [11]): 5.95 | pKd (HLA-B*07:02 [12]): 5.52 | pKd (HLA-A*33:01): 5.91 | pKd (HLA-A*02:06): 4.87

pKd (HLA-B*15:01 [17]): ≤ 4.70 | pKd (HLA-B*46:01 [18]): ≤ 4.70 | pKd (HLA-B*15:17): ≤ 4.70 | pKd (HLA-A*02:01 [19]): ≤ 4.70 | pKd (HLA-A*26:01 [20]): ≤ 4.70 | pKd (HLA-B*57:01): ≤ 4.70 | pKd (HLA-B*39:01): ≤ 4.70 | pKd (HLA-B*27:03): ≤ 4.70 | pKd (HLA-B*51:01 [21]): ≤ 4.70 | pKd (HLA-B*18:01 [22]): ≤ 4.70 | pKd (HLA-A*69:01 [23]): ≤ 4.70 | pKd (HLA-A*01:01; source organism: Homo sapiens): 7.20
Sequence: RTDNGGWAH

pKd (HLA-B*15:01 [17]): ≤ 4.70 | pKd (HLA-B*46:01 [18]): ≤ 4.70 | pKd (HLA-A*02:01 [19]): ≤ 4.70 | pKd (HLA-A*26:01 [20]): ≤ 4.70 | pKd (HLA-B*57:01): ≤ 4.70 | pKd (HLA-B*39:01): ≤ 4.70 | pKd (HLA-B*27:03): ≤ 4.70 | pKd (HLA-B*51:01 [21]): ≤ 4.70 | pKd (HLA-A*69:01 [23]): ≤ 4.70 | pKd (HLA-A*01:01; source organism: Canis lupus familiaris): 9.10
Sequence: GTEYRLTLY
